According to PMC5643311:

Tests used:
Experiment in all cases: co-immunoprecipitation, blot
Conditions in all cases: reference: wild type, EGF; sites S303
RelA/p65 [1] = target: RelA/p65 (UniProt Q04206)
RelA/p65 [2] = target: RelA/p65 (UniProt Q04206); remark: listed apart in the source
RelA/p65 [3] = target: RelA/p65 (UniProt Q04206); remark: listed apart in the source

binding against the reference (RelA/p65 [1]): weaker
binding against the reference (RelA/p65 [2]): weaker
binding against the reference (RelA/p65 [3]): weaker
Substance: MIIP (migration and invasion inhibitory protein) (from UniProt Q5JXC2) S303A, EGF
